Measurements as given in patent publication US20180111984A1 (Teva, published 2018).
Ends that are not written are not given here.

Biological target: T1, antibody G1 Fab fragment
T1 construct: Fab expressed in E. coli; purified on Ni-NTA, tag not described
Experiment: Biacore competition: 10 µM peptide with 50 nM G1 Fab over human α-CGRP chip
Text: Y axis represents percentage of binding blocked by the presence of the competing peptide compared with the binding in the absence of the competing peptide.
All these peptides are amidated at the C-terminus.

T1 sequence (VH, as listed by the source, chain 1 of 2): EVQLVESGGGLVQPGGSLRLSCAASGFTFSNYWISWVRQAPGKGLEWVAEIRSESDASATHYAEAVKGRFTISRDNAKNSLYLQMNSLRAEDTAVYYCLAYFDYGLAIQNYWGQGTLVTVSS
T1 sequence (VL, as listed by the source, chain 2 of 2): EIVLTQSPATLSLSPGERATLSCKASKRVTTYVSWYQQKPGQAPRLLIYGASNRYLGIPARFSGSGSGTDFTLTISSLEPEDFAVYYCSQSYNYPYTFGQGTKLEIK

percentage of binding blocked | Binder
100% | VTHRLAGLLSRSGGVVKNNFVPTNVGSKAF-NH2 [human α-CGRP 8-37]
~40% | ACDTATCVTHRLAGLLSRSGGVVKNNFVPTNVGSKA-OH (ends and bridges not checked, not C-terminally amidated; also called 1-36 (not amidated at the C-terminus)) [human α-CGRP 1-36-COOH]
100% | SCNTATCVTHRLAGLLSRSGGVVKDNFVPTNVGSKAF-NH2 (cysteine pairing not given here, also called rat β (1-37)) [rat β-CGRP (1-37)]

More lines, now with the values behind:

Binder | percentage of binding blocked
NFVPTNVGSKAF-NH2 [human α-CGRP 26-37] | 100%
ACDTATCVTHRLAGLLSRSGGVVKNNFVPTNVGSKAF-NH2 (cysteine pairing not given here, also called full length human α-CGRP) [human α-CGRP 1-37 (WT)] | 100%
ACNTATCVTHRLAGLLSRSGGMVKSNFVPTNVGSKAF-NH2 (cysteine pairing not given here, also called human β (1-37); 1-37 of β-CGRP (WT)) [human β-CGRP (1-37)] | 100%
